In patent publication US20100135951:

Target: purified cIAP1, Q13490
Sequence (Q13490 whole entry): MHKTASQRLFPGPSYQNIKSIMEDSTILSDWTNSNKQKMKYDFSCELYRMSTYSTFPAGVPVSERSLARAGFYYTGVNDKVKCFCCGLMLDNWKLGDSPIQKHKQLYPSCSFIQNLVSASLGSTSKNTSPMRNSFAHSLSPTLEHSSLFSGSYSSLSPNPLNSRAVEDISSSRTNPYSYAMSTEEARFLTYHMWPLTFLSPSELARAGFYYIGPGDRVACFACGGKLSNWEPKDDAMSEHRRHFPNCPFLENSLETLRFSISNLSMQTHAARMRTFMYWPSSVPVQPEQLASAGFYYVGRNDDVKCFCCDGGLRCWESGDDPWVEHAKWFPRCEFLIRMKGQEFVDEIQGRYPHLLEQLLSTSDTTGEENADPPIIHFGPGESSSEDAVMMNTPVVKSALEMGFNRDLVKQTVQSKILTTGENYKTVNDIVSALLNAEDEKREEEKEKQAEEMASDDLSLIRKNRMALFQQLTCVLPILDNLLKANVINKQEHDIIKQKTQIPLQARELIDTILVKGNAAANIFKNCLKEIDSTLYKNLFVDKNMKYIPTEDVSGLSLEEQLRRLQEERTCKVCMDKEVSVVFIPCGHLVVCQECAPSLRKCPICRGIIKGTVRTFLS

B1: recombinant active human caspase-8 (protein)
chain: SESQTLDKVYQMKSKPRGYCLIINNHNFAKAREKVPKLHSIRDRNGTHLDAGALTTTFEELHFEIKPHDDCTVEQIYEILKIYQLMDHSNMDCFICCILSHGDKGIIYGTDGQEAPIYELTSQFTGLKCPSLAGKPKVFFIQACQGDNYQKGIPVETDSEEQPYLEMDLSSPQTRYIPDEADFLLGMATVNNCVSYRNPAEGTWYIQSLCQSLRERCPRGDDILTILTEVNYEVSNKDDKKNMGKQMPQPTFTLRKKLVFPSD
- caspase-8 protease activity (fluorogenic substrate Ac-IETD-AMC): purified cIAP1 also suppressed caspase-8 protease activity completely
